The values below come from patent US20210324028A1.

The test deals with human CD122/CD132 on cells of human PBMCs (human) (UniProt P14784). Description: cell-based or functional assay.
Sequence of human CD122/CD132 on cells of human PBMCs (human) (P14784 27-551, chain 1 of 2): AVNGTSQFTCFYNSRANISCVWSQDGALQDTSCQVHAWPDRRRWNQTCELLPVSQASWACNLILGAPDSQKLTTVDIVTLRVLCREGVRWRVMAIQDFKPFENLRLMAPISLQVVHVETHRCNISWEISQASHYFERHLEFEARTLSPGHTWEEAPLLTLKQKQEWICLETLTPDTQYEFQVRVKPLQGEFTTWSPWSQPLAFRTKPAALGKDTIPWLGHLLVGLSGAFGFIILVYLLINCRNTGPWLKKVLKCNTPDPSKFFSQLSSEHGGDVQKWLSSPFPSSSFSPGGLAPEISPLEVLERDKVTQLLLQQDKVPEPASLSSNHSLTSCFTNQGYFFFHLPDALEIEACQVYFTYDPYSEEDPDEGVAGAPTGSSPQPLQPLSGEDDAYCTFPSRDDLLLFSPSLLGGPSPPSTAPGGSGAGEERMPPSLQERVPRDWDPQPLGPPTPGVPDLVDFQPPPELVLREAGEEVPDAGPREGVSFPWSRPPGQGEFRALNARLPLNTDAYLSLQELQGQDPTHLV
Sequence of human CD122/CD132 on cells of human PBMCs (human) (P31785 23-369, chain 2 of 2, further chain): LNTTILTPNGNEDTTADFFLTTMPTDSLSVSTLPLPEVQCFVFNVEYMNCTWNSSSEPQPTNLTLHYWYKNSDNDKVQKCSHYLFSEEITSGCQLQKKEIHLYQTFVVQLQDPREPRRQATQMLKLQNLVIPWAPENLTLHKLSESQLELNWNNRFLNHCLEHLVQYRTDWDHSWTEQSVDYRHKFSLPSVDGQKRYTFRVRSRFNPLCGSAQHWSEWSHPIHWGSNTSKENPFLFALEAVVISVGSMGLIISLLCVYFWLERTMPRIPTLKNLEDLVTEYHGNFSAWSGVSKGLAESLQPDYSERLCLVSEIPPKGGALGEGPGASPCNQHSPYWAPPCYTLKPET

B1: Isotype control--IL15 M1 (protein, part only; not given: Isotype control antibody chains and linker, part only)
heavy, part: AWVNVISDLKKIEDLIQSMHIDATLYTESNVHPSCKVTAMKCFLLGLQRISLESGDASIHDTVENLIILANNSLSSNGNVTESGCKECEELEEKNIKEFLQSFVHIVQMFINTS
For B1, the pSTAT5 EC50 on human CD8+cm T cells (hPBMC) worked out at 3.67 nM and the pSTAT5 EC50 on human NK cells (hPBMC) was found to be 0.946 nM.

B2: Isotype control--IL15 M2 (protein, part only; not given: Isotype control antibody chains and linker, part only)
heavy, part: GWVNVISDLKKIEDLIQSMHIDATLYTESNVHPSCKVTAMKCFLLGLQRISLESGDASIHDTVQNLIILANNSLSSNGNVTESGCKECEELEEKNIKEFLQSFVHIVQMFINTS
For the molecule B2, the pSTAT5 EC50 on human CD8+cm T cells (hPBMC) came to 37.6 nM and the pSTAT5 EC50 on human NK cells (hPBMC) was found to be 11.2 nM.
